Experiment [1] concerns the target full-length human Neurofibromin (His6-tagged, purified) (human) (UniProt P21359). The experiment in a line: negative stain electron microscopy.
The target is the same in experiment [2]. Nature of the experiment: SAXS and SANS.
For experiment [3] the target is unchanged. The experiment in a line: AUC.
Experiment [4] has the same target. The experiment in a line: SEC-MALS.
Experiment [5] has the same target. Nature of the experiment: SEC. On the technique in general: SEC sorts molecules by how far they enter the pores of the column.

A value given as a limit tells only on which side of the number the result lay.

As for “full-length human Neurofibromin (His6-tagged, purified), P21359-2 1-2818”, the stoichiometry N in experiment [1], in experiment [2], in experiment [3], in experiment [4] and in experiment [5] was 2 in each case. This substance also registered an equilibrium dissociation constant (Kd) in experiment [3] of under 5 nM.

By stoichiometry N is commonly meant a count of units in the complex or per binding partner. What is called Kd is a measure of binding affinity in units of concentration.

Values taken from publication doi:10.1101/757856.
